The results in this text go back to patent US20150030595A1.

Where two headings read alike, the source gives them in different places.

Assay [1] addresses anti-myc antibody coated on the ELISA plate. Nature of the assay: phage ELISA, anti-myc coated.
Assay [2] concerns the target Fc. Nature of the assay: phage ELISA, Fc coated. In general terms: In an ELISA, binding on a coated surface is turned into a signal by an enzyme label.
In assay [3] the target is anti-myc antibody coated on the ELISA plate. The assay is described as follows: phage ELISA, anti-myc coated. The source holds these as a separate data set.
For assay [4], the target named is T1, ACVR2B-Fc fusion protein (human) (UniProt Q13705).
T1 sequence: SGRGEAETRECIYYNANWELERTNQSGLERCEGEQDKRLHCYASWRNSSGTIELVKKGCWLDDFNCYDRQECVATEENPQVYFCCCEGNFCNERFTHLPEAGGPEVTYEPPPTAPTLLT
The assay is described as follows: phage ELISA, ACVR2B coated.

Assay [5] concerns the target Fc. Nature of the assay: phage ELISA, Fc coated. This is another data set of the same source.
Assay [6] deals with T1, ACVR2B-Fc fusion protein (human). Nature of the assay: phage ELISA, ACVR2B coated. This is another data set of the same source.
Assay [7] shares this target. The assay is described as follows: phage ELISA; OD on ACVR2B divided by OD on a-myc.
The target is the same in assay [8]. The assay is described as follows: SPR (ProteOn XPR36).
For assay [9], the target named is DLK1-Fc fusion protein (human). Nature of the assay: phage ELISA, DLK1 coated.
DLK1-Fc fusion protein (human), sequence (chain, as listed by the source limits assumed, form in doubt): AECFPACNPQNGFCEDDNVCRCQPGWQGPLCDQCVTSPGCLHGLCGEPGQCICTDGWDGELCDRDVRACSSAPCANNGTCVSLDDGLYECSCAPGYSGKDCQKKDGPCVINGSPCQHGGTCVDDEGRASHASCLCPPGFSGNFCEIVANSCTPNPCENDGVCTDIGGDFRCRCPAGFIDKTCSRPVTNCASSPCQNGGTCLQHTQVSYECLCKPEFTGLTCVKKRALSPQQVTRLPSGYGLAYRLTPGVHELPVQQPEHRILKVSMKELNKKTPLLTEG
Assay [10] concerns the target DLK1-Fc fusion protein (human). Nature of the assay: phage ELISA; OD on DLK1 divided by OD on a-myc.

One may read the Kd as the concentration at which binding is half-saturated. For orientation: koff means a measure of how fast the partners let go of each other. Low values mean a long-lived complex, high ones a short-lived complex. As usually defined, the kon is the second-order rate constant of association.

B1: ACVR2B A07 (monoclonal scFv-phage) (scFv, V domains shown)
VH: QLVESGGGLVRPGRSLTLSCTASGFTFNDYAMHWVRQAPGKGLEWVSGISWNTNSKAYADSVKGRFIISRDNAKNSLYLEMNSLRAEDTAVYYCVRDGGRFYYGLDVWGQGTSVTVSS
VL: DIVMTQTPVSSPVTLGQPASISCRSSQSLIHSDGNTYLSWIQQRPGQPPRLLIYKISNRFSGVPDRFSGSGAGTDFTLKISRVEAEDVGVYYCAETSQVPHTFGQGTKVEIK
modifications: scFv linker not given
Consider B1, for which the OD490 came out at 0.213 OD in assay [1]; 0.044 OD with Fc [2]; 0.213 OD in assay [3]; 2.66 OD in assay [4]; 0.0443 OD in the assay with Fc [5]; 2.65 OD in assay [6]. The Ratio in [7] came out at 12.5.

B2: human antibody F08 (full-length IgG) (antibody, V domains shown)
VH: VQLVESGGGLVQPGGSLRLSCAASGFTFSDHYMDWVRQAPGKGLEWVGRTRNKANSYTTEYAASVKGRFTISRDDSKNSLYLQMNSLRAEDTAVYYCTKGAWLDYWGQGTLVTVSS
VL: IQMTQSPSAMSASVGDRVTITCRASQGISNYLAWFQQKPGKVPKRLIYGASSLQGGVPSRFSGSGSGTEFTLTITSLQPEDFATYFCLQHKSYPLTFGPGTKVEIK
modifications: constant regions not given
On to B2, for which, in [8], the Kd came to 4.05 pM, the koff came out at 1.32e-05 s⁻¹ and the kon amounted to 3.25e+06 M⁻¹ s⁻¹.

B3: DLK1 H06 (monoclonal scFv-phage) (scFv, V domains shown)
VH: QVQLVQSGGGLIQPGGSLRLSCAASGFTFSLYGMSWVRQAPGKGLEWVSSIPGSGTRTHYADSVKGRFTISRDNSKNTLFLQMNSLRAEDTAVYYCAKSTAYLFDYWGPGTLVTVSS
VL: DIQMTQSPATLSLSPGERATLSCRASQSIRHYLAWYQQKPGQAPRLLIHGASSRATGIPDRFSGSGSGTDFTLTISRLEPEDFAVYYCQHYGSPLHSFGPGTKVEIK
On to B3, for which the OD490 in assay [9] was found to be 2.13 OD; in [3] it was 0.863 OD; in the assay with Fc [5], 0.0766 OD. Moreover, in assay [10], the Ratio amounted to 2.47.

B4: DLK1 H12 (monoclonal scFv-phage) (scFv, V domains shown)
VH: QVQLVQSGGGLVKPGGSLRLSCAASEFTFSDYYMSWVRQAPGKGLEWLSYISGSGITTYYADSVKGRFTISRDNGKKSLYLEMNSLRAEDTAVYYCARLQGHCSGGACSNWFDAWGQGTLITVSS
VL: DIQMTQSPSSLSASVGDRLTITCRASQSILTYLNWYQQKPGKAPKLLIYAASSLQRGVPSRFSGSGSGTDFTLTISGLQPEDFATYYCQQGYGTPYTFGQGTKVDIK
B4: the OD490 in assay [9] was determined as 3.2 OD; in assay [3], 0.674 OD; with Fc [5], 0.0539 OD. The Ratio in [10] turned out to be 4.75.

B5: DLK1 B09 (monoclonal scFv-phage) (scFv, V domains shown)
VH: QMQLVESGGRLVRPGGSLRLSCAASGFPFTSYAMNWVRQTPGKGLEWVSTITATSGKTYYADSVKGRFTISRDNSRNTLFLQMNSLRAEDTAVYYCVRGESCSGGACSDFDYWGQGALVTVSS
VL: QLVLTQPASVSGSPGQSVTISCTGTSSDIGRYNRVSWYQHHPGKAPKLILNDVTTRPSGFSNRFSGSKSGNTASLTISGLQAEDEADYSCGSYAGSYTYVFGTGTKVTVL
As for B5, the OD490 in assay [9] came out at 2.33 OD; in [3] it was 0.0918 OD; in the assay with Fc [5] it was 0.0786 OD. Besides, the Ratio in assay [10] was 25.3.

B6: DLK1 A04 (monoclonal scFv-phage) (scFv, V domains shown)
VH: QVQLVESGAEVKKPGASVKVSCKASGYTFKDYAIHWVRQAPGQRLEWMGWINPGSGNTKYSHNFEGRVILTRDASANTAYLELPSLRSEDTAVYYCARSVSAYGSNYFDPWGQGTLITVSS
VL: DIQMTQSPSSLSASVGDRVTITCQASQDISNYLNWYQQKPGKAPKLLIYSTSNLQSGVPSRFSGSGSGTDFTLTISSLQPEDFATYYCQQLNSYPLTFGGGTKVDIK
In the case of B6, the OD490 in assay [9] amounted to 3.12 OD; in assay [3], 0.507 OD; in the assay with Fc [5] it was 0.0791 OD. Further, the Ratio in [10] stood at 6.15.

B7: DLK1 A10 (monoclonal scFv-phage) (scFv, V domains shown)
VH: QVQLVESGGGLVQPGRSLRLSCAASGFTFDDYAMHWVRQAPGKGLEWVSGISWNSGSIGYADSVKGRFTISRDNAKNSLYLQMNSLRAEDTAVYYCARGPGLATGKGYADYWGQGTLVTVSS
VL: DIQMTQSPSSVSASVGDRVTITCRASQRISSWLAWYQQKPGRAPKLLIHSASTLHNGVPSRFSGSASGTDFTLTISSLQPEDYAIYYCQQGHSFPYTFGQGTKLEIK
In the case of B7, the OD490 in assay [9] was determined as 2.83 OD; in assay [3], 1.28 OD; with Fc [5], 0.0828 OD. Also, in [10], the Ratio stood at 2.21.

B8: DLK1 A05 (monoclonal scFv-phage) (scFv, V domains shown)
VH: QMQLVESGGGLVQPGRSLRLSCAASGFTFDEHAMHWVRQAPGKGLEWVSGINWNSGKTGYADSVKGRFTISRDNGKNSLYLQMNSLRAEDTAVYYCAKSGGYGGNTNWYFDLWGRGTLVTVSS
VL: QFVLTQPPSVSGAPGQNVTISCIGTSSNIGVGYDVHWYQQVPGTAPKLLVYGNNNRPSGVPDRFSGSKSGTSASLAITGLQAEDEADYYCQSYDSRLGVVFGGGTKLTVL
As for B8, the OD490 in assay [9] is 2.99 OD; in assay [3] it was 0.784 OD; with Fc [5], 0.0704 OD. Moreover, in assay [10], the Ratio came out at 3.81.
